This is an account of results in article PMC4849473.

Data set [1] relates to His6-SUMO-Chp1CD LOOP1B/2B (Schizosaccharomyces pombe). Nature of the data set: MST. As to conditions: H3KC9me3 methyl-lysine analog; X. laevis H2A, H2B, H3, H4; Nucleosome pull-down: 20 mM HEPES pH 7.5, 100 mM KCl, 0.5 mM DTT, 40 mM imidazole, on ice; complex assembly and RNA pull-down: 20 mM HEPES pH 7.5, 75 mM KCl, 0.
For data set [2], the target named is Chp1CD LOOP1B/2B, SUMO tag removed, fluorescently labelled (for MST) (fission yeast (S. pombe)) (UniProt Q10103). Nature of the data set: MST; 300 ng fluorescent Chp1CD (SUMO removed) in 20 μl, H3K9me3Nucleosomes titrated (0 to 2.4 μM); 10 mM Tris-HCl pH 7.5, 150 mM NaCl, 0.5 mM DTT, 0.05% Tween-20, 10% glycerol; cubic fit, Kd interpolated at 50% bound.
Chain of Chp1CD LOOP1B/2B, SUMO tag removed, fluorescently labelled (for MST) (fission yeast (S. pombe)) (Q10103 15-75 N33A/N35A/W49A/Y50A/D51A): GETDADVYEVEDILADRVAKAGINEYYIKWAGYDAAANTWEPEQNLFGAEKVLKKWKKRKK

Consider H3K9me3 nucleosome (601), for which the binding signal (fold reduction in Kd vs wt) in data set [1] was greater than 5. For “H3K9me3 methyl lysine analog (MLA) nucleosome (complex)”, the fold reduction in Kd against wild-type Chp1CD in data set [2] is greater than 5 fold.
